1 molecule from article PMC1800861, “Characterization of an Oct1 orthologue in the channel catfish, Ictalurus punctatus: A negative regulator of immunoglobulin gene transcription?” can be followed below.

Data set [1] concerns the target T1, Oct2β (in vitro translated) (Ictalurus punctatus (channel catfish), UniProt O13007 1-480).
T1 sequence: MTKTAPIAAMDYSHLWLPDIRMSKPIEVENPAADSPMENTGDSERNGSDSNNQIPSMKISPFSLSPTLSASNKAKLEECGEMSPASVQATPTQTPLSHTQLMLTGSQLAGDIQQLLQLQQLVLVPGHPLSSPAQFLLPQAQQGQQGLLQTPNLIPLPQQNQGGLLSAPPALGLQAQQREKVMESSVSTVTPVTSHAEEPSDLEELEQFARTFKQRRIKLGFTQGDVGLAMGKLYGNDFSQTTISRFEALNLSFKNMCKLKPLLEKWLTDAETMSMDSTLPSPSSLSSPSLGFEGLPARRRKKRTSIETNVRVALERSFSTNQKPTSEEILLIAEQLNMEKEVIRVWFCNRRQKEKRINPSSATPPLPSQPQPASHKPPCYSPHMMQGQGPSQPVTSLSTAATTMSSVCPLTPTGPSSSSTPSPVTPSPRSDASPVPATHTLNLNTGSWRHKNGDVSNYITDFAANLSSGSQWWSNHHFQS
The data set is described as follows: EMSA; 1x Promega binding buffer (from 5x, composition not given), 30 min preincubation at room temperature then 30 min with probe; 5% native PAGE at 4°C; 100x competitor; pH and salt not given; extract EMSA as in Ross et al. As to conditions: protein: ivt; label: 32P-dATP Klenow fill-in; 5' overhang 4 nt on both strands as annealed; labeled by Klenow fill-in. A general note: In EMSA bound probe runs differently from free probe, usually more slowly.

For data set [2], the target named is T2, Oct1 (in vitro translated) (Ictalurus punctatus (channel catfish; …, UniProt O57602 1-623).
T2 sequence: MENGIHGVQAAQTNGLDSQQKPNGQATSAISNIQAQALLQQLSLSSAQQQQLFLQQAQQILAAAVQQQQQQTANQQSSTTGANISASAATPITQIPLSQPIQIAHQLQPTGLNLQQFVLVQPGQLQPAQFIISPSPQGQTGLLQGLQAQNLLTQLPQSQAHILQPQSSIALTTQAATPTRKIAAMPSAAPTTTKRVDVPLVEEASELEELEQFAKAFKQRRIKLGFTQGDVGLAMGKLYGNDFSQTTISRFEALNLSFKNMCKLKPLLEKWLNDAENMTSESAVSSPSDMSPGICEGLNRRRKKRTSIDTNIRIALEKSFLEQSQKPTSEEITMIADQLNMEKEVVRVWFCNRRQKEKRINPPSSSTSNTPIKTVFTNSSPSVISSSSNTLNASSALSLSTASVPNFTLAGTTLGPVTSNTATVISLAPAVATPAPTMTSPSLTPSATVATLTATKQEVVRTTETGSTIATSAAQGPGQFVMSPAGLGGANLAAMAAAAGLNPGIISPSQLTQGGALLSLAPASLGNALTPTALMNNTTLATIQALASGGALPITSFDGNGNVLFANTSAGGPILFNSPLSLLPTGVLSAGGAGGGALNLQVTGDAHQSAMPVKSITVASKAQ
The data set is described as follows: EMSA; cold self competitor inhibits; anti-Oct1 abolishes shift; 1x Promega binding buffer (from 5x, composition not given), 30 min preincubation at room temperature then 30 min with probe; 5% native PAGE at 4°C; 100x competitor; pH and salt not given; extract EMSA as in Ross et al. As to conditions: protein: ivt; label: 32P-dATP Klenow fill-in; 5' overhang 4 nt on both strands as annealed; labeled by Klenow fill-in.

B1: Eμ3' core enhancer first octamer (G-2110/G-2111) (dsDNA)
DNA 1: GCAAAACACTGCATGTAAATAGTCTAAT
DNA 2: CATTATTAGACTATTTACATGCAGTGTT
As for B1, the binding result in data set [1] and in data set [2] was “binds” in each case.
